Results from PMC6315749 (Marine Drugs, 2018).

Columns and labels:
[1] = target: Aplysia californica acetylcholine-binding protein (Aplysia californica); test: radioligand binding
[2] = target: ligand-binding domain of the human nAChR α9 subunit, de-glycosylated, His-tagged (human) (UniProt Q9UGM1); test: […] (20 mM Tris-HCl pH 8.0, 1 mg/mL BSA); […]

α-conotoxin RgIA, globular isomer (from UniProt P0C1D0 20-32) (peptide)
IC50 [1]: 194 nM
IC50 [2]: > 60000 nM

α-conotoxin RgIA, ribbon isomer (from UniProt P0C1D0 20-32) (peptide)
IC50 [1]: 1000 nM

αO-conotoxin GeXIVA, beads isomer (peptide)
IC50 [1]: 2900 nM
IC50 [2]: 1630 nM

αO-conotoxin GeXIVA, globular isomer (peptide)
IC50 [1]: 2900 nM

αO-conotoxin GeXIVA, ribbon isomer (peptide)
IC50 [1]: 2900 nM
